Reference: patent publication US20210221894A1 (DRAGONFLY THERAPEUTICS, published 2021)

Columns and labels:
[1] = target: T1, recombinant His-tagged EGF4-6 domains of human DLL3 (human, UniProt Q9NYJ7 353-492, limits assumed); experiment: SPR (Biacore 8K), 37 C, antibody captured on anti-mouse Fc, DLL3 domain construct injected, 1:1 fit
T1 sequence: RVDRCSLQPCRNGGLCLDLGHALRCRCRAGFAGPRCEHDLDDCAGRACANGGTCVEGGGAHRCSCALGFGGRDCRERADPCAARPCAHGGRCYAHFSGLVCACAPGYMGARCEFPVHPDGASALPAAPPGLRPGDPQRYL
Description: (§1) The binding kinetics of different anti-DLL3 antibodies to recombinant proteins of different domains of human DLL3 were studied by surface plasmon resonance (SPR) using a Biacore™ 8K instrument. These anti-DLL3 antibodies were produced from mouse hybridomas, and each included a heavy chain variable region and light chain variable region described herein. Briefly, antibodies recognizing human IgG Fc and antibodies recognizing mouse IgG Fc were immobilized on different channels of a Biacore™ 8K chip to allow simultaneous analysis of human and murine anti-DLL3 antibodies. Murine anti-DLL3 antibodies were captured on the anti-mouse Fc channel of the Biacore chip. The human anti-DLL3 antibody from Stemcentrx (San Francisco, Calif.) was used as a control and was captured onto anti-human Fc channel of the Biacore™ chip. Different concentrations of DLL3 ECD, DLL3 N-terminal domain, EGF2-6, EGF3-6, EGF4-6, or EGF5-6 domains of DLL3 were injected. Experiments were performed at 37° C. Biacore™ 8K evaluation software was used for all data analysis. To obtain kinetic rate constants double-referenced data were fit to a 1:1 interaction model using Biacore™ 8K Evaluation software (GE Healthcare, Marlborough, Mass.). The equilibrium binding constant KD was determined by the ratio of binding rate constants kd/kₐ.
(§2) The binding epitope on DLL3 by the anti-DLL3 antibody which included a heavy chain variable region and light chain variable region of clone 5E7 (see Table 2) was identified by SPR analysis at 37° C.

[2] = target: T2, recombinant His-tagged EGF2-6 domains of human DLL3 (human, UniProt Q9NYJ7 274-492, limits assumed); experiment: as above
T2 sequence: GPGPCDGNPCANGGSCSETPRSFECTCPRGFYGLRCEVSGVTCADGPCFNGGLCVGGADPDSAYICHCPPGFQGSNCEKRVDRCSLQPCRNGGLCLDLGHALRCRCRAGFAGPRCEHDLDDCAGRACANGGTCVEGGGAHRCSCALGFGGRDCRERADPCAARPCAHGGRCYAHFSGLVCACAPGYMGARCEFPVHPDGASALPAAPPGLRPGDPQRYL
Description: as §1, §2

[3] = target: T3, recombinant His-tagged EGF3-6 domains of human DLL3 (human, UniProt Q9NYJ7 312-492, limits assumed); experiment: as above
T3 sequence: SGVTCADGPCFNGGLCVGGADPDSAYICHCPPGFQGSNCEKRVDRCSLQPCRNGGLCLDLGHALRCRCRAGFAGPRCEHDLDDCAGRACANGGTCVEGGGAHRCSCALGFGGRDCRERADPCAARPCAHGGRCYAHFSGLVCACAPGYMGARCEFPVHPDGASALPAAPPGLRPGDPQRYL
Description: as §1, §2

[4] = target: T4, recombinant human DLL3 (ELISA coat) (human, UniProt Q9NYJ7 27-492); experiment: ELISA, plate coated with recombinant human DLL3 0.5 µg/ml, anti-mouse IgG-HRP
T4 sequence: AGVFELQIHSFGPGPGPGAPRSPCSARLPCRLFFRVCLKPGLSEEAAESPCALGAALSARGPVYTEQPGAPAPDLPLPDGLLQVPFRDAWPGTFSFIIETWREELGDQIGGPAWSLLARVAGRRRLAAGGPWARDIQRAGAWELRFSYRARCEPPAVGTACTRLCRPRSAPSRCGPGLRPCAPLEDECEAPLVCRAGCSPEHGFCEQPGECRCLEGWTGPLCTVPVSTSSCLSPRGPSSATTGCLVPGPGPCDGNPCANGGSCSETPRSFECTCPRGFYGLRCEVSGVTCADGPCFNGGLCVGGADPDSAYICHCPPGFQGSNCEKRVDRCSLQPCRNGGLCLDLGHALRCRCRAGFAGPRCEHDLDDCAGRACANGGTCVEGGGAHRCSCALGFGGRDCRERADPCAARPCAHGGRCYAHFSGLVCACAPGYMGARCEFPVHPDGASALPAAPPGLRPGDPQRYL
In short: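 Antibody binding measured on plates coated with recombinant human DLL3 at 0.5 μg/ml, detected with anti-mouse IgG-HRP and TMB substrate. Signals normalized to the matching positive control antibody; EC₅₀ calculated from binding curves.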

[5] = target: T5, extracellular domain (ECD) of human DLL3 (AdipoGen Life Sciences) (human, UniProt Q9NYJ7 27-492); experiment: SPR (Biacore 8K), 37 C, antibody captured on anti-mouse Fc, DLL3 ECD injected, 1:1 fit
T5 construct: Bought and further purified by size exclusion chromatography; also called hDLL3 ECD; DLL3 ECD
T5 sequence: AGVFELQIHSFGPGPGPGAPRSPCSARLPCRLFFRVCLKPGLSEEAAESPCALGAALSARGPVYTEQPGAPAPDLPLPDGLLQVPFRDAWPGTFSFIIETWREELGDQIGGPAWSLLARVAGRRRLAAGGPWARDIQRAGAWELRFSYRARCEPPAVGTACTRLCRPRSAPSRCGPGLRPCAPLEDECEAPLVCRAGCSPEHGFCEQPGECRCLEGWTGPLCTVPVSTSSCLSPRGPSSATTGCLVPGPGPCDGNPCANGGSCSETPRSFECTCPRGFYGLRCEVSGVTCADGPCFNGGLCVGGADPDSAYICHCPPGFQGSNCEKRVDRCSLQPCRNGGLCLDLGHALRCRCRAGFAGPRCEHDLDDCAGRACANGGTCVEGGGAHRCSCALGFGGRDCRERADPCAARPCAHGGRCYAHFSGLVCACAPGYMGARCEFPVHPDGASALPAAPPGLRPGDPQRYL
Description: as §1
Table 36 lists the calculated binding kinetics (KD). […] Stemcentrx anti-DLL3 antibody was used as a control.

[6] = target: T6, recombinant His-tagged N-terminal domain of human DLL3 (human, UniProt Q9NYJ7 27-175, limits assumed); experiment: SPR (Biacore 8K), 37 C, antibody captured on anti-mouse Fc
T6 construct: also called DLL3 N-terminal domain
T6 sequence: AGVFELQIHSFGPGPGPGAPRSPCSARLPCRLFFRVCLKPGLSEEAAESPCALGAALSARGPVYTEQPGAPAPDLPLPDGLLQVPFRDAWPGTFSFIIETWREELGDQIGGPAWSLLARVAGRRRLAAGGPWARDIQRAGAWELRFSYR
Description: as §1, with “kd/kₐ. […]” for “kd/kₐ.”

[7] = target: T7, recombinant His-tagged EGF5-6 domains of human DLL3 (human, UniProt Q9NYJ7 391-492, limits assumed); experiment: as above
T7 sequence: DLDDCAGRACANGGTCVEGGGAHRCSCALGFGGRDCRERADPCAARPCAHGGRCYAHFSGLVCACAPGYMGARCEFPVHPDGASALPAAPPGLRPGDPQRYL
Description: as §1, with “kd/kₐ. […]” for “kd/kₐ.”

Kd [1]: 1.12 nM | koff [1]: 0.00061 s⁻¹ | kon [1]: 546000 M⁻¹ s⁻¹ | Kd [2]: 0.669 nM | koff [2]: 0.000382 s⁻¹ | kon [2]: 570000 M⁻¹ s⁻¹ | Kd [3]: 0.184 nM | koff [3]: 0.000264 s⁻¹ | kon [3]: 1.45e+06 M⁻¹ s⁻¹ | EC50 [4]: 0.07 nM | Kd [5]: 0.203 nM | koff [5]: 6.47e-05 s⁻¹ | kon [5]: 319000 M⁻¹ s⁻¹ | binding result [6]: no binding | binding result [7]: no binding
B1: murine anti-DLL3 antibody clone 5E7 (antibody, V domains shown)
VH: EVQLQQSGAELVRPGASVKLSCTASGFNIKDDYIHWVKQWPEQGLEWIGWIDSENGDTEYASKFQGKATMTADTSSNTAYLQLSGLTSEDTAVYYCTTSSYYSYDLFVYWGQGTLVTVSA
VL: DVLMTQTPLTLSVPIGQPASISCKSSQSLLHSNGKTYLNWLLQRPGQSPKLLIYLVSKLESGVPDRFSGSGSGTDFTLKISRVEAEDLGVYYCLQTTHLYTFGGGTKLEIK
notes: Murine antibody produced from a mouse hybridoma, captured on anti-mouse Fc in SPR; also called m5E7; murine 5E7
